Test [1] deals with GP075m, variant of the putative baseplate wedge protein GP075 with the substitution T239A (phage K8-T239A), His-tagged (Pseudomonas phage K8-T239A (derivative of phage K8)). Briefly: SEC-MALS; 100 ul of protein solution (0.15-4.05 mg/ml) on a WTC-015S5 column; 100 mM NaCl, 50 mM Tris-HCl, 1 mM EDTA, 0.02% NaN3, pH 7.4; 0.4 ml/min; BSA as control; self-polymerization degree.
The target in test [2] is putative baseplate wedge protein GP075 of Pseudomonas phage K8, His-tagged (Pseudomonas phage K8). The description is as above.

“GP075m, variant of the putative baseplate wedge protein GP075 with the substitution T239A (phage K8-T239A), His-tagged (natural protein)” displayed a molar mass in test [1] of 185.
For the substance “putative baseplate wedge protein GP075 of Pseudomonas phage K8, His-tagged (natural protein)”, in test [2], the molar mass was found to be 81.2.

These data come from PMC9887876.
